Series [1] addresses FITC-Mature-1cys (Mus musculus) (UniProt P09535). Briefly: fluorescence polarisation. (In general: Polarisation of emitted light reports the rotation of a fluorescent probe.)
Series [2] has the same target. The series is described as follows: fluorescence polarisation. This is another data set of the same source.
Series [3] deals with T1, BiP (UniProt P20029 20-655). The series is described as follows: fluorescence polarisation.
The target of series [4] is T1, BiP. The series is described as follows: fluorescence polarisation. This is another data set of the same source.
Series [5] concerns the target T1, BiP. The series is described as follows: fluorescence polarisation. This is another data set of the same source.
In a further series the target is BSA (bovine (from the name BSA), UniProt P02769 25-607). The series is described as follows: fluorescence polarisation.
Chain of BSA (P02769 25-607): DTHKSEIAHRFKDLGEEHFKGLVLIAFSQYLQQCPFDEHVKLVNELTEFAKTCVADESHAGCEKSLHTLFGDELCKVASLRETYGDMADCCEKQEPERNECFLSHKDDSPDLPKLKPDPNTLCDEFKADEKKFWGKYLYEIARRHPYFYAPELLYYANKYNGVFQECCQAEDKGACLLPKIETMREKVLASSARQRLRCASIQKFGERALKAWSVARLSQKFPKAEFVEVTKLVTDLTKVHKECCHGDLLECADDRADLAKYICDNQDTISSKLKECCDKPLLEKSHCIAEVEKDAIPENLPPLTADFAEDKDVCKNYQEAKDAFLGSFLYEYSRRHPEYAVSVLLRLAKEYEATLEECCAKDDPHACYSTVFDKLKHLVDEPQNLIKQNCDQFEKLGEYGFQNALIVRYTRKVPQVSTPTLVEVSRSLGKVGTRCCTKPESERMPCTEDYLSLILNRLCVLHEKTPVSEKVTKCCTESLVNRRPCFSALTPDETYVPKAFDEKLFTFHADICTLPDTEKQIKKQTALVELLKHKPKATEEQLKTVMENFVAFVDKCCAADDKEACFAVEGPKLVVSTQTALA
The series “dynamic light scattering” concerns the molecule itself. The series is described as follows: dynamic light scattering.

Read-outs that look alike come from different tables or passages of the source. Ends that are not written are not given here. * marks the point of attachment. FITC = O=C1OC2(c3ccc(O)cc3Oc3cc(O)ccc32)c2ccc(NC(=S)*)cc21; Ahx = NCCCCCC(=O)O

T1 sequence (P20029 20-655): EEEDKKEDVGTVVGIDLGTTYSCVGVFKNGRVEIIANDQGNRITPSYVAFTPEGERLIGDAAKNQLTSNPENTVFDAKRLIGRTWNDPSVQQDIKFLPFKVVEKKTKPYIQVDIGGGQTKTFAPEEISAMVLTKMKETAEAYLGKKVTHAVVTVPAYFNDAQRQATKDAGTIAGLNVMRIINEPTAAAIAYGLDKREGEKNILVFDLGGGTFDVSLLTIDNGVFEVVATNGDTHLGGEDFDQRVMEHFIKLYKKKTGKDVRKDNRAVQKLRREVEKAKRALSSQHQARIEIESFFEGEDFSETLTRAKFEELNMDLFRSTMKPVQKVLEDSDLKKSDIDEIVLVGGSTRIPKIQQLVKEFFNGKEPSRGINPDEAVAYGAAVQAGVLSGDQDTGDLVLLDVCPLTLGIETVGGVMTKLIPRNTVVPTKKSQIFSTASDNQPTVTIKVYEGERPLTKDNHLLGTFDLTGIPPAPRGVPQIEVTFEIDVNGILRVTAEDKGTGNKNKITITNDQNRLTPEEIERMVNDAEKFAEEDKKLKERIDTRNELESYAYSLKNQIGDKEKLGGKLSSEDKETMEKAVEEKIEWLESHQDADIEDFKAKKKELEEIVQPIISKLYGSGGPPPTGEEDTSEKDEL
Chain of FITC-Mature-1cys (Mus musculus) (P09535 25-91): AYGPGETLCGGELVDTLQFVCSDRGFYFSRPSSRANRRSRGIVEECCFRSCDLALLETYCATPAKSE

For “BiP (from UniProt P20029 20-655) (natural protein)”, the dissociation constant (Kd) (as a rule, the constant that tells how readily two partners part at equilibrium) in series [1] was 9.7 µM; in series [2], 2.7 µM.

B1: FITC-E-peptide 92-139 (domain or fragment)
chain: RDVC(FITC‑maleimide)TSQAVLPDDFPRYPVGKFFQYDTWRQSAGRLRRGLPALLRARRG
As for B1, the Kd with BiP [3] is 1.9 ± 0.6 µM; with BiP [4], 0.52 ± 0.13 µM.

B2: FITC-E-peptide 151-169 (peptide)
peptide: {FITC-Ahx}-EAKRHRPLIVLPPKDPAHG
The molecule B2 showed a dissociation constant (Kd) with BiP [4] of 15 ± 1 µM.

B3: FITC-E-peptide 103-120 (peptide)
peptide: {FITC-Ahx}-DDFPRYPVGKFFQYDTWR
Turning to B3, the dissociation constant (Kd) with BiP [5] worked out at 0.46 ± 0.05 µM; in the series with BSA, 13 ± 2 µM; in the series with BiP [3] it was 13 ± 2 µM; with BiP [4] it was 0.95 ± 0.17 µM.

B4: FITC-E-peptide 121-139 (peptide)
peptide: {FITC-Ahx}-QSAGRLRRGLPALLRARRG
Turning to B4, binding with BiP [4] was characterised by a dissociation constant (Kd) of 5.3 ± 0.6 µM.

B5: FITC-E-peptide 92-120 (domain or fragment)
chain: RDVC(FITC‑maleimide)TSQAVLPDDFPRYPVGKFFQYDTWR
For B5, the Kd with BiP [3] is 8 ± 3.8 µM; with BiP [4], 0.67 ± 0.17 µM.

B6: E-peptide (domain or fragment)
chain: RDVCTSQAVLPDDFPRYPVGKFFQYDTWRQSAGRLRRGLPALLRARRGRMLAKELKEFREAKRHRPLIVLPPKDPAHGGASSEMSSNHQ
Consider B6, for which, in the series “dynamic light scattering”, the binding result is on record as “binds”.
